Data as given in patent publication US20190127444A1 (published 2019).

Assays:
[1] = target: LukE, recombinant polyhistidine-tagged variant; assay: SPR
[2] = target: SdgB glycosylated SdrC4 protein (UniProt O86487 51-910); assay: SPR

Binder | Kd [1] | Kd [2]
mAb 5133 PRASA A6 HC-L4-E (Table 1 Construct 15) (bispecific antibody) heavy: EVQLVETGGGLVKPGGSLRLSCSASRFSFRDYYMTWIRQAPGKGPEWVSHISGSGSTIYYADSVRGRFTISRDNAKSSLYLQMDSLQADDTAVYYCARGGRATSYYWVHWGPGTLVTVSSASTKGPSVFPLAPSSKSTSGGTAALGCLVKDYFPEPVTVSWNSGALTSGVHTFPAVLQSSGLYSLSSVVTVPSSSLGTQTYICNVNHKPSNTKVDKKVEPKSCDKTHTCPPCPAPPVAGPDVFLFPPKPKDTLMISRTPEVTCVVVDVSHEDPEVKFNWYVDGVEVHNAKTKPREEQYNSTYRVVSVLTVLHQDWLNGKEYKCKVSNAALPAPIAKTISKAKGQPREPQVYTLPPSRDELTKNQVSLTCLVKGFYPSDIAVEWESNGQPENNYKTTPPVLDSDGSFFLYSKLTVDKSRWQQGNVFSCSVMHEALHNRFTQKSLSLSPGKGGGGSGGGGSGGGGSGGGGSMLPAPKNLVVSRVTEDSARLSWTAPDAAFDSFHIEYAEPWVWGEAIVLTVPGSERSYDLTGLKPGTEYVVFIGGVKGGHNSTPLSAIFTT light: EIVLTQSPATLSLSPGERATLSCRASQSVSGYLGWYQQKPGQAPRLLIYGASSRATGIPDRFSGSGSGTDFTLTISRLEPEDFAVYYCQQYGSSPLTFGGGTKLEIKRTVAAPSVFIFPPSDEQLKSGTASVVCLLNNFYPREAKVQWKVDNALQSGNSQESVTEQDSKDSTYSLSSTLTLSKADYEKHKVYACEVTHQGLSSPVTKSFNRGEC | 0.88 nM | 0.63 nM
mAb 5133 PRASA A6 HC-L4-E-L4-AB (Table 1 Construct 11) (bispecific antibody) heavy: EVQLVETGGGLVKPGGSLRLSCSASRFSFRDYYMTWIRQAPGKGPEWVSHISGSGSTIYYADSVRGRFTISRDNAKSSLYLQMDSLQADDTAVYYCARGGRATSYYWVHWGPGTLVTVSSASTKGPSVFPLAPSSKSTSGGTAALGCLVKDYFPEPVTVSWNSGALTSGVHTFPAVLQSSGLYSLSSVVTVPSSSLGTQTYICNVNHKPSNTKVDKKVEPKSCDKTHTCPPCPAPPVAGPDVFLFPPKPKDTLMISRTPEVTCVVVDVSHEDPEVKFNWYVDGVEVHNAKTKPREEQYNSTYRVVSVLTVLHQDWLNGKEYKCKVSNAALPAPIAKTISKAKGQPREPQVYTLPPSRDELTKNQVSLTCLVKGFYPSDIAVEWESNGQPENNYKTTPPVLDSDGSFFLYSKLTVDKSRWQQGNVFSCSVMHEALHNRFTQKSLSLSPGKGGGGSGGGGSGGGGSGGGGSMLPAPKNLVVSRVTEDSARLSWTAPDAAFDSFHIEYAEPWVWGEAIVLTVPGSERSYDLTGLKPGTEYVVFIGGVKGGHNSTPLSAIFTTGGGGSGGGGSGGGGSGGGGSMLPAPKNLVVSRVTEDSARLSWTAPDAAFDSFWITYEEKFYRGEAIVLTVPGSERSYDLTGLKPGTEYKVWIVGVKGGQGSWPLSAIFTT light: EIVLTQSPATLSLSPGERATLSCRASQSVSGYLGWYQQKPGQAPRLLIYGASSRATGIPDRFSGSGSGTDFTLTISRLEPEDFAVYYCQQYGSSPLTFGGGTKLEIKRTVAAPSVFIFPPSDEQLKSGTASVVCLLNNFYPREAKVQWKVDNALQSGNSQESVTEQDSKDSTYSLSSTLTLSKADYEKHKVYACEVTHQGLSSPVTKSFNRGEC | 1.01 nM | 0.91 nM
